Test results reported in the DeepSol protein solubility set.

Assay: soluble on expression in E. coli; label from the status in PepcDB or PDB records

In the case of “MKYEVVITSGNSNQAPIGAFFKGDFVTLHLYGGSHTFENLQKDGFYILNTCSPYLIAKSVLDDAGDYEYLDNDGIKIPYLKDSYKIELIEIKSRKIVETKNEFGSSKLMIVEGKPIFEKILNCNTSAYNRADGAVVEMAVLYSRKNMISKEEINDEITRLMKIIKKVGSKNHIELAKKLGVLEHHHHHH”, the “soluble on expression in E. coli” value is reported as “not soluble”.
In the case of “MGSDKIHHHHHHMTRNGIGIRTAQVRSERLTGQIHVYDGVGKGKSQAALGVVLRSIGLGINAPNNSNRVLLLRFLKGPERDYDEDGAIAALQRGFPHLIDQVRTGRAEFFGPEEITTFDRSEAGRGWDVAKGAIASGLYSVVVLDEINPVLDLGLLSVDEVVGTLKSKPQELEIIATGRGAPQKLLDIADLHSEMKPLHHPKATELLMKGIEIYTGAGKGKSTSALGKALQAIGRGINHPGSTRVLIMQWLKGGSGYTEDAAIAALRQSYPEVVDHQRCGRDAIVWRNSRQELDYVEAERGWEIAKVAIASGLYKTIILDELNPTVDLELLPVEPIVQALLRKPRDTEIIITGRCQNQPAYFDLASIHSEVYCHKHYANQGVELKRGVDF”, the “soluble on expression in E. coli” value is reported as “not soluble”.
For “MGSDKIHHHHHHAALYARWAPTHSAAPAAEQQRKVLFWYDPMYPNTRFDKPGKSPFMDMDLVPKYADEEHAAAGAPGVRIDPTQTQNLGVKTAAVTRGPLRYAQTFPANISYNEYQYVIMQARAAGFINKVYPLTVGDKVKQGTPLLELTIPDWVEAQSEYLLLQETGGTATQVEGILERLRLAGMPDDDIRRLKATRKIQTRFTLTAPIDGVITAFDLRAGMNIAKDNVVAKIQGMDPVWVSVAVPESIAWLIKDASQFSIQVPAWPGKTFRISKWTLLPSVDSATRTLQLRLQVNNPDEALKPGMNAYLQLTSESAPMLLIPSKALIDSGSEQRVITVDNEGRFVPKRVQVFHESAGVTAIRSGLQEGEKVVARGLFLIDSEANIAGALERMRAQAPDAAASAAHAH”, the “soluble on expression in E. coli” value was “not soluble”.
In the case of “MISRIHIEEFRDIGDLELFFLPGVNLLIGDNGSGKTSVLKACQYVLGTFFCGFKMDHTPTWTQLTPEAKDFRRRVSSDGDELMKHPIKFNFDLRYEENGQNPIELTDQILTKRNTLGRALTTTFQDHQDYTKGLLEGYATDEGRYRPLPVFVFYSVEDIHTKRKVSHSLFQKYRHMASFGYYHALTENAFLDFWIKRMLILREEEQAGNHELAVVRGALLSALGTDGAGVLQDLSIRINKKAVYWKLLDGREISSEHLPDGLRRVISIVVDLAFRCALLNQTLYQSDSALKSEGTVLIDEIDLHLHPRLQASILKGLRKAFPRLQFIITSHAPMVMSSVDADDKYNIVYKMSYNQEMSQYEALKQSTYGLDVSTIMRMILGLAPRDKQVDERLTHLFDLIDLEKYSEATIALQSLQDQFDDSLPELSKASVMLHFLSSEQNEENH”, the “soluble on expression in E. coli” value is reported as “not soluble”.
For “MAHHHHHHMHAYSGRMEHRKMVEVKDVPQNMYTYGKEGMSIPISIFKDQADPVIGPEWTYPGIFENKIVAQHWYMEELFDREKSNTFESPWQRQVLDNQVKRRLGKVAWRMSMLNIKTIDIFHKERGASKRPGAGDTKAPATPAGKK”, the “soluble on expression in E. coli” value was “not soluble”.
In the case of “MAEKSLITQETVGMTDEGLPPVLQGRNNSTQQVSFLRARVKCTDQGLITKIGVLPRGAFIKSIKIYAMTDFEDVTATFGKEPHGNDYGDVGLTQSTDSNVYIPMEERDVPLEVENTIYMTRDKKSSKGDVEVIVEFYTNR”, the “soluble on expression in E. coli” value is reported as “not soluble”.
For “MFEGGHSKSFSIFPIRVVYMPVEQGEVPATILISVSKRRFKRAVKRNRVKRQIREVYRKNKQPLLDGLQNKGQRLAIAFIYLSDELVATAELEEKMKTALSRISEKLSL”, the “soluble on expression in E. coli” value was “not soluble”.
With “MVQSCSAYGCKNRYDKDKPVSFHKFPLTRPSLCKEWEAAVRRKNFKPTKYSSICSEHFTPDCFKRECNNKLLKENAVPTIFLCTEPHDKKEDLLEPQEQLPPPPLPPPVSQVDAAIGLLMPPLQTPVNLSVFCDHNYTVEDTMHQRKRIHQLEQQVEKLRKKLKTAQQRCRRQERQLEKLKEVVHFQKEKDDVSERGYVILPNDYFEIVEVPA” the “soluble on expression in E. coli” value was “soluble”.
For “DVKLVQSGPGLVAPSQSLSITCTVSGFSLTTYGVSWVRQPPGKGLEWLGVIWGDGNTTYHSALISRLSISKDNSRSQVFLKLNSLHTDDTATYYCAGNYYGMDYWGQGTSVTVSSAETTAPSVYKLEPVSSVTLGCLVKGYFPEPVTLTWNSGSLSSGVHTFPAVLQSDLYTLSSSVTVTSSTWPSQSITCNVAHPASSTKVDKKIEPRG”, the “soluble on expression in E. coli” value was “soluble”.
In the case of “MGSDKIHHHHHHMEQTTQTQLVEIQQVVLRMSKYFVAFCEEHNLTCYFCGGGCIGAIRSQGFIPWDDDLDFFMPRPDYEKLKVLWPKYADTECYPLLVASKTYNDHNSFMTIRDAQTTFIKTYQDGLAIPHGIPIDIFPLDGAPKGNFQRKKQKIWALIYALFCSQVVPEKHGGILATGSRVLLNIFPSKKVRYHIWRFAEKRMTKYSFGSTPYVTELCVGPRYMGNIYHLEDFKSAIFVPFEDTKMPIPVGYKRYLTEVFGDYMQLPPEEDRQPHHEALIVDTKKSYTEYLKK”, the “soluble on expression in E. coli” value is reported as “not soluble”.
For “MSLSLSTIICIGMAGSGKTTFMQRLNSHLRAEKTPPYVINLDPAVLRVPYGANIDIRDSIKYKKVMENYQLGPNGAIVTSLNLFSTKIDQVIGLVEQKKDKFQNCIIDTPGQIECFVWSASGAIITESFASSFPTVIAYIVDTPRNSSPTTFMSNMLYACSILYKTKLPMIVVFNKTDVCKADFAKEWMTDFESFQAAIKEDQDLNGDNGLGSGYMSSLVNSMSLMLEEFYSQLDVVGVSSFTGDGFDEFMQCVDKKVDEYDQYYKQEREKALNLKKKKEEMRKQKSLNGLMKDLGLNEKSSAAASDNDSIDAISDLEEDANDGLVDRDEDEGVEREYTFPGEERTKGEVNENSAPDLQRRYQEAMQQVGKTASSETAENIAKYIRNEGHHHHHH”, the “soluble on expression in E. coli” value was “soluble”.
With “MQRMGMVIGVKPEMIAEYKRLHAAVWPEVLALISESNIRNYTIFLREPENLLFGYWEYHGSDFSADMAKIAASPKNQEWWSFTIPCQQPLESRKEGEWWAMMEETFHLD” the “soluble on expression in E. coli” value was “not soluble”.
In the case of “MSLKDILVIGATGKQGNAVVKQLLEDGWYVSALTRNKNNRKLSDIGHPHLSIVEGDLSDNVSLQSAMKGKYGLYSIQPIVKDDVSEELRQGMKIIEIAEQENIQHIVYSTAGGVNRNRTGPHFEVLAKIENRLMESNINATVIKPSFFMDNFLRIAKVEDERITLPEFINPNIKFTMISSIDIAKIASYIFAHPQSFTHQSIEIGSDEVTLSEAATIFSEVTGKSTVIEGEFVSGVAEKQWLEEKGYEVDFELMAEINPTRLSLSDWLKVQNYNEGHHHHHH”, the “soluble on expression in E. coli” value is reported as “soluble”.
For “MLGLFDQGRLIGAVVLDPRRLGPERDWLQLKFLHLSHAYRRRGLGAHLFHLAATQARHLGASALYVSATPSQNTVDFYTRLGCR”, the “soluble on expression in E. coli” value was “soluble”.
For “MGSDKIHHHHHHMVALTDPDLLFPPEAHSRSLARDLYAGIKDLPIVSPHGHTDPRWYALNEPFPDPAQLLIVPDHYIFRMLFSQGVRLEDLGVASLDGAPVETDGRTIWRRFAEHYYLFRGTPTRLWFDHVLAHLFGIEEPLDATTADRHYDTIATVLQWENFRPRALFERFNIEVIATTEGALDDLEWHKMIRDSGWEGRVVTAYRPDAVVDPDFEGFSANLDRLGEITGCDTGSWAGYLDAHRQRRAFFKSFGATSSDHGHPTAETANLSDAAAQELFNRIRRGSQDERERKLFRAQMLTEMAKMSRDDGLVLQIHPGSWRNHSPSVFQRFGRDKGFDIPTRTDYVTALKPLLDCVGLERDLTVILFTLDESSYARELAPLAGVYPALKLGPAWWFHDSPEGMRRFREMTTETAGFYNTVGFNDDTRAFPSIPARHDVARRVDCAFLARLVAEHRLREDEAHELARELAHTLAKKAYRL”, the “soluble on expression in E. coli” value was “not soluble”.
With “AMSKIICLTAGHSNTDPGAVNGSDREADLAQDMRNIVASILRNDYGLTVKTDGTGKGNMPLRDAVKLIRGSDVAIEFHTNAAANKTATGIEALSTPKNKRWCQVLGKAVAKKTGWKLRGEDGFKPDNAGQHSRLAYAQAGGIVFEPFFISNDTDLALFKTTKWGICRAIADAIAMELGAAKV” the “soluble on expression in E. coli” value was “soluble”.
For “MISNQVLQNTLEGLKEISRTEFCIIDTEGKVLATTFADFSIQPGDIQAFVESQADSQLVKGFQYFKVCDDYQLEYILVAHGDDEDTYMVGKLAAFQIQNLIVAYKERFDKDSFIKNLLLDNLLLVDIYNRAKKLHIDADVRRVVMILELQQEKDHSSMESVKSFFGGKSKDFITAVDEKSIIIVKELEDGEGYAEMDKLAHAILDTLGLNQNEETHIAYGTIVNELKEVSRSYKEARMALDVGKIFFGEKDVIAYSSLGIGRLIYQLPIPLCKMFIKEIFENKSPDDFDEETLVTIDKFFENSLNVSETSRQLYIHRNTLVYRLDKLQKSTGLDLRVFEDAITFKIALMVVRYMKYMETLEY”, the “soluble on expression in E. coli” value was “not soluble”.
For “MGSDKIHHHHHHMGEVYEKNNIDFDSIAKMLLIKYKDFILSKFKKAAPVENIRFQNLVHTNQFAQGVLGQSQHLCTVYDNPSWHSIVLETLDLDLIYKNVDKEFAKDGHAEGENIYTDYLVKELLRYFKQDFFKWCNKPDCNHCGQNTSENMTPLGSQGPNGEESKFNCGTVEIYKCNRCGNITRFPRYNDPIKLLETRKGRCGEWCNLFTLILKSFGLDVRYVWNREDHVWCEYFSNFLNRWVHVDSCEQSFDQPYIYSINWNKKMSYCIAFGKDGVVDVSKRYILQNELPRDQIKEEDLKFLCQFITKRLRYSLNDDEIYQLACRDEQEQIELIRGKTQETKSESVSAASKSSNRGRESGSADWKAQRGEDGK”, the “soluble on expression in E. coli” value was “not soluble”.
With “MRVYYYMNIEELKRVIKDQREYLESLEKQKIIERELPFNVEQYLSKPNILAILGVRRSGKSTLGYLLVREKNFAYIDFSDDRLVNFTDFDTLTKAFYELYGDFTHVLIDEPQYVNGWELFVNRLRKEKSVIITGSNSSLLSGELASALTGRHVDLILFPFSFKEYLTFRGVKVDLYSTKSISLIKNELENYLKEGGFPETLSLGKRIIPSIYNDIITKDVIGRYKIRDVVKFKEFVNSMVKYYSTEISVRKLANLLKISTRTIEEWLNAIQESYLLFFVRRYSRSPKQFNGQRKVYVIDAGIVNYLTSFSYGGLMENVVAIQLLRKNQLEGIYYLRGEDYEVDFVDEKNGELIQVSYVSSQDEINRNEIRSLVKGSQITEFNKLTIVSWDLEDEIIVEGKKIRIVPLWKYLI” the “soluble on expression in E. coli” value was “soluble”.
In the case of “MGSDKIHHHHHHMDWGIYMKQLPFKAVAVDVDGTFENDKKEYDHEMFGEILYRLHKHGAHFIIASGRPAGRLSDDFGDFIDSVDFVADNGAVLVRDGKIIRTTCFSKKGILHLIDYMHQRYPGSVTTLLISGVKHSYFLKSTPPEFKRSHHYFYPNSIEIDDFSQIPADDQYTKITVDYPSKVRHELEYGFNSRSMEKIHVTTSGWNYMDIIPQGVNKATGLKEFLAYLDVPRSELIAFGDGENDIEMLKLAGLSYAMENGQNSVKKIANFIAPSNNDNGVFKVLNHYLNEVNK”, the “soluble on expression in E. coli” value is reported as “not soluble”.
With “MGHHHHHHSHMAIPITVLDCDLLLYGRGHRTLDRFKLDDVTDEYLMSMYGFPRQFIYYLVELLGANLSRPTQRSRAISPETQVLAALGFYTSGSFQTRMGDAIGISQASMSRCVANVTEALVERASQFIRFPADEASIQALKDEFYGLAGMPGVMGVVDCIHVAIKAPNAEDLSYVNRKGLHSLNCLMVCDIRGTLMTVETNWPGSLQDCAVLQQSSLSSQFEAGMHKDSWLLGDSSFFLRTWLMTPLHIPETPAEYRYNMAHSATHSVIEKTFRTLCSRFRCLDGSKGALQYSPEKSSHIILACCVLHNISLEHGMDVWSSPMTGPMEQPPEEEYEHMESLDLEADRIRQELMLTHFS” the “soluble on expression in E. coli” value was “not soluble”.
